What was measured:
mouse PAI-1 = target: T1, mouse PAI-1 (mouse, UniProt P22777 23-402, limits assumed, n-terminal biotin label in the P-ELISA); test: P-ELISA
T1 construct: also called murine PAI-1
T1 sequence (looked up): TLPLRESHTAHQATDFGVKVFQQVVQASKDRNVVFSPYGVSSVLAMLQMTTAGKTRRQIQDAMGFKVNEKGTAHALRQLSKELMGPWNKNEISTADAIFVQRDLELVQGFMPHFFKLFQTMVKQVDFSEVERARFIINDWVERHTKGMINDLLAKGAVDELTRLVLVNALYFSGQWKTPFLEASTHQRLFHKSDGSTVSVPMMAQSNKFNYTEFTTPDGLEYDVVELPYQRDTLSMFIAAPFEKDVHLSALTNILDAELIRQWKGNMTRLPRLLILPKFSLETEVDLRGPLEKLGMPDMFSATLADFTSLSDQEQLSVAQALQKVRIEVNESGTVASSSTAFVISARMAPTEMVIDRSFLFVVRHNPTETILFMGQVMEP

rat PAI-1 = target: T2, rat PAI-1 (rat, UniProt P20961 24-402, n-terminal biotin label in the P-ELISA); test: P-ELISA: biotinylated PAI-1 (panel title: Rat PAI-1) on Neutravidin-coated plate, HRP-conjugated secondary antibody, O.D. 450
T2 sequence (looked up): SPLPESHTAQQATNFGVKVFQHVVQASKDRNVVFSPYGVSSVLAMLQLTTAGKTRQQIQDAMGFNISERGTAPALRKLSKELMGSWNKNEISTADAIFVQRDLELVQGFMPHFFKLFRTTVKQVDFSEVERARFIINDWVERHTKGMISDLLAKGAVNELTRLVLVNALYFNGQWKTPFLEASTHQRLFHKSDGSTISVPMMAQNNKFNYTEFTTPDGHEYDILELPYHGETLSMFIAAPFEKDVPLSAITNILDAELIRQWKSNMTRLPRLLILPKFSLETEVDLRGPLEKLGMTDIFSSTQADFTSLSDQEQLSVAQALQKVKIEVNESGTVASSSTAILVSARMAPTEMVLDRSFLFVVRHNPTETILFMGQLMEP
Description: All reagents are brought to room temperature (18-23° C.) and dilutions are made in Wash Buffer (1× TBS, 0.1% BSA, 0.05% Tween). Briefly, protocol steps are as follows: [0952] Add 100 μL of Neutravidin™ Pierce #31000 (0.5 μg/ml in TBS) to 96-well Immulon-4 plates. [0953] Incubate 1 hour at room temperature (RT). [0954] Wash wells 3 times with 200 μl Wash Buffer. [0955] Add 50 μL of biotinylated biomolecule (0.06 nM) Incubate 1 hour at RT. [0956] Wash plate 3 times in Wash Buffer. [0957] Add 100 μL of 1° Ab Incubate 30 min RT [0958] Wash plate 3 times in Wash Buffer. [0959] Add 50 μL of 2° Ab-HRP (1:10,000) Incubate 30 min RT [0960] Wash plate 4 times in Wash Buffer. [0961] Add 100 μl TMB Reagent (substrate). Incubate at room temperature. [0962] Add 100 μL of 2 M Sulfuric Acid to stop development of the substrate. [0963] Plates were read using a 450 nm filter with a 615-620 nm filter as the reference.
Binding of CT140 to rat, mouse, rabbit and human PAI-1 was determined by P-ELISA (see FIG. 12). The relative affinity of CT140 is human=rabbit>mouse>rat (FIG. 12A, FIG. 12B, FIG. 12C and FIG. 12D, respectively).

[1] = target: PAI-1 (antigen of Example 11, species not stated) (Homo sapiens (Human)) (UniProt P05121); test: biosensor kinetics, mAb captured on anti-human IgG surface at 5 densities, 25 C, global 1:1 fit
[2] = target: human PAI-1 (plasminogen activator inhibitor-1) (human, UniProt P05121 24-402, n-terminal biotin label in the P-ELISA); test: cell-based or functional assay
[3] = target: PAI-1 (immobilised antigen of the P-ELISA of FIG. 13, species not stated); test: P-ELISA on immobilised biotinylated PAI-1 (species not stated), A450; antibody without plasma, with or without EDTA
[4] = target: PAI-1 (antigen of Example 11, species not stated) (Homo sapiens (Human)) (UniProt P05121); test: biosensor kinetics, 25 C, global 1:1 fit
[5] = target: PAI-1 (immobilised antigen of the P-ELISA of FIG. 13, species not stated); test: P-ELISA on immobilised biotinylated PAI-1 (species not stated), A450; antibody spiked into plasma with EDTA

Chain of PAI-1 (immobilised antigen of the P-ELISA of FIG. 13, species not stated) (P05121 24-402): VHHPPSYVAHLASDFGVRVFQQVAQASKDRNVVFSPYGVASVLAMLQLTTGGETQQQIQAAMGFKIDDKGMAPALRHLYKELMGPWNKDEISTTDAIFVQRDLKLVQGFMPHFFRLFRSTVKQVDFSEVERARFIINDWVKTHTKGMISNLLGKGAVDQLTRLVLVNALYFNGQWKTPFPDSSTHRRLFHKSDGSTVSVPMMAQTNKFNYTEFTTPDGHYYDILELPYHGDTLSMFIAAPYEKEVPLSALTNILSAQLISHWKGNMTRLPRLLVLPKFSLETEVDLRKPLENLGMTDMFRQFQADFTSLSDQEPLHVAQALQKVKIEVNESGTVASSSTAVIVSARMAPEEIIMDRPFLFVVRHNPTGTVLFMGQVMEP
Chain of human PAI-1 (plasminogen activator inhibitor-1) (P05121 24-402 limits assumed): as the sequence (P05121 24-402) above

B1: CT140 (humanized 33B8 anti-PAI-1 antibody, IgG4 with IgG1 hinge) (antibody, V domains shown)
VH: QVQLVQSGAEVKKPGASVKVSCKASGYTFTNYGMNWVRQAPGQGLEWMGWINTYTGEPTYTDDFKGRFTMTLDTSISTAYMELSRLRSDDTAVYYCAKDVSGFVFDYWGQGTLVTVSS
VL: DIVMTQSPDSLAVSLGERATINCKSSQSLLNIIKQKNCLAWYQQKPGQPPKLLIYWASTRESGVPDRFSGSGSGTDFTLTISSLQAEDVAVYYCQQYYSYPYTFGQGTKLEIKR
notes: The IgG4 hinge was replaced by that of IgG1; also called hP-1; humanized mAb CT140
fold greater affinity relative to the parent mouse anti-PAI-1 (mouse PAI-1): > 10 fold | binding result (rat PAI-1): binds | Kd [1]: 0.015 nM | koff [1]: 8e-06 s⁻¹ | kon [1]: 530000 M⁻¹ s⁻¹ | EC50 (read off the curve) [2]: ~10 µg/mL

B2: murine monoclonal antibody 33B8 (MA-33B8) (antibody, V domains shown)
VH: QIQLVQSGPELKKPGKTVTISCKASGYTFTNYGMNWVKQAPGKGLKWMGWINTYTGEPTYTDDFKGRFAFSLDTSASTAYLQISNLKNEDTATYFCAKDVSGFVFDYWGQGTTVTVSS
VL: DIVMTQSPSSLAVSVGEKVTMSCKSSQSLLNIIKQKNCLAWYQQKPGQSPKLLIYWASTRESGVPDRFTGSGSGTDFTLTISSVKAEDLAVYYCQQYYSYPYTFGGGTKLEIK
EC50 (read off the curve) [3]: 0.1 µg/mL | Kd [4]: 8.01 nM | koff [4]: 0.00314 s⁻¹ | kon [4]: 393000 M⁻¹ s⁻¹ | EC50 (read off the curve) [5]: 0.4 µg/mL
